Source: patent US20230054956A1 (VANDERBILT UNIVERSITY, published 2023)

B1: NORO-327A (antibody, V domains shown)
VH: QVQLEVSGGGLVKPGGSLRLSCAASGFTFTDYYMSWIRQAPGKGLEWVAYISGIMSSTKYADSVKGRFTISRDNGKNSVYLQMNSLTAEDTAVYYCARERVEPPSAVTDFWGQGTLVTVSS
VL: QSVLTQSPSVSGAPGQRVTISCTGTSSNIGAGYDVHWYQQFPGTAPKLLISHNTNRPSGVPDRFSGSKSGTSASLAITGLQAEDEADYYCQSFDSSLRGSRVFGGGTKLTVL
notes: human hybridoma mAb; IgG, lambda
B2: NORO-246A (antibody, V domains shown)
VH: EVHLVESGGGLVKPGGSLRLSCAASGFTFSRYGMHWVRQAPGKGLEWVSSIVIRSDYKYYADSVKGRFTISRDNAKNSLYLQMNSLRADDTAVYYCARDLVEPGITPVGCDYWGRGTLVTVSS
VL: SNELTQAPSVSVSPGQTARITCFGDALANQYSYWYQRKPGQAPVLVIYKDSERPSGIPQRFSASNSGTTVTLTITGVQAEDEADYFCQSADSTGIYKVFGGGTKLTVL
notes: as for B1
B3: NORO-232A.2 (antibody, V domains shown)
VH: QVQLKQWGAGLLKSSETLSLTCAFNGNSFGAFYWSWIRLSPGKGLEWIGEVNYLGGADYNPSLKSRVTMSADTSKRQFSLSLKSVTAADTGVYFCARGRPHDYSPGSYSRPRRYYGLDVWGQGTTVTVSS
VL: EIVLTQSPATLSLSPGDSATLSCRASQAVSTTYLAWYQQTRGQAPRLLIHGTYTRAIGIPDKFSGTGSGTDFTLTISGLAPEDFAVYYCQQYSSSPYTFGQGTKIEIT
notes: human hybridoma mAb; IgA, kappa; in both panels
B4: NORO-115 (antibody, V domains shown)
VH: QVQLVESGGGLVKPGGSLRLSCTASGITISGYYMSWIRQAPGKGLEWIVYINTSGRTIYYADSVKGRFSVSRDNAKESLYLQMDSLTVDDTGIYYCARDRLPASGSHWFHPWGQGTLVTVSS
VL: DIVMTQSPDSLAVSLGGRATINCKSSQSVLYTSDNKNYLAWYQQQPGQPPKLLISWASTRESGVPDRFSGSGSGTDFTLTISNLQAEDVAVYYCQQYYNSPLAFGGGTKVEIK
B5: NORO-329A (antibody, V domains shown)
VH: QVQLVESGGGLVKPGGSLRLSCAASGFTFSDYYMSWIRQAPGKGLEWISYISSSFGSTDYAGSMKGRFTISRDNAKNSLYLQMNSLRAEDTAVYYCARYNYYGSGSFVFDYWGQGTLVTVSS
VL: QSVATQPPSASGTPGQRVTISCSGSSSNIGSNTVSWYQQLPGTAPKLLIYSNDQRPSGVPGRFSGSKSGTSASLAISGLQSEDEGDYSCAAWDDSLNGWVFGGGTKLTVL

Columns and labels:
[1] = molecular target: T1, GII.4 Sydney 2012 virus-like particles (VLPs), based on strain AFV08795.1 (human norovirus GII.4 Sydney 2012, UniProt P54635 1-538, The particle is a multimeric assembly of VP1 with a little VP2 inside; one VP1 chain is given.); test: indirect ELISA, VLP coated
T1 construct: VLP assembled from VP1 and VP2 in baculovirus/Sf9 cells; also called GII.4 VLPs
T1 chain: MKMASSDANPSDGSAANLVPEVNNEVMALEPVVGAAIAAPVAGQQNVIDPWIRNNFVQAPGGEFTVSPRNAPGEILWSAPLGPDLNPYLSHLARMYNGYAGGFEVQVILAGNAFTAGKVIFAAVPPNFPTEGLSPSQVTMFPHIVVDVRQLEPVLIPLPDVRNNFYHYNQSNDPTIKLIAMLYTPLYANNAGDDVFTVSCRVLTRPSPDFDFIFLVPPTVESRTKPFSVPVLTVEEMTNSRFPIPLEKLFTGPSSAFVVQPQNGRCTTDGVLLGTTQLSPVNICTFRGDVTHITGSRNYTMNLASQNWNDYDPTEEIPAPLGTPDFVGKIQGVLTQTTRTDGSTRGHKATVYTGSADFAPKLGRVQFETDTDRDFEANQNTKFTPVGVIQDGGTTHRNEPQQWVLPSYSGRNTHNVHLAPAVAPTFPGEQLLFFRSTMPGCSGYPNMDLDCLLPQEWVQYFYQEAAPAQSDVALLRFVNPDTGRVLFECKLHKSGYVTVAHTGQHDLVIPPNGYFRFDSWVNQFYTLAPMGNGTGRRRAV

[2] = molecular target: GII.4 Houston 2002 (ABY27560.1) VLPs (human norovirus GII.4 Houston 2002, UniProt P54635 1-539); test: ELISA, VLP
[3] = molecular target: GII.4 Sydney 2012 virus-like particles (VLPs), based on strain AFV08795.1 (human norovirus GII.4 Sydney 2012, UniProt P54635 1-538, The particle is a multimeric assembly of VP1 with a little VP2 inside; one VP1 chain is given.); test: indirect ELISA, VLP coated

Binder | EC50 [1] [µg/mL] | fold higher binding EC50 than to GII.4 Sydney 2012 VLPs [2] [fold] | EC50 [3] [µg/mL]
B1 | 0.6 |  | 
B2 | 0.2 |  | 
B3 | 0.3 |  | 
B4 |  | > 10 | 0.1
B5 |  | > 10 | 0.2
